From paper PMC314469, “Protein Interaction Networks by Proteome Peptide Scanning” (PLoS Biology, 2004)

T1: Boi1 SH3 (BOI1_YEAST), P38041
T1 chain: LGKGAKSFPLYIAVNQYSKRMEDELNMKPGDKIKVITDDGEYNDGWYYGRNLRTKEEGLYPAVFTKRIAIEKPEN

T2: Boi2 SH3 (BOI2_YEAST), P39969
T2 chain: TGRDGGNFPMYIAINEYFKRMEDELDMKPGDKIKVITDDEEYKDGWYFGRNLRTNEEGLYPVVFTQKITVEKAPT

T3: Rvs167 SH3 (RV167_YEAST), P39743
T3 chain: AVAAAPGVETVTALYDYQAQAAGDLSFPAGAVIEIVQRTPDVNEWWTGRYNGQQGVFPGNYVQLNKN

T4: Yhr016c SH3 (YSC84_YEAST), P32793
T4 chain: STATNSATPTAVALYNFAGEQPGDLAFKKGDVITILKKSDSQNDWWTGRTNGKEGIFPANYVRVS

T5: Yfr024 SH3 (LSB3_YEAST), P43603
T5 chain: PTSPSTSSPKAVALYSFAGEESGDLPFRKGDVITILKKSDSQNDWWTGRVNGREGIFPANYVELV

T6: Myo5 SH3 (MYO5_YEAST), Q04439
T6 chain: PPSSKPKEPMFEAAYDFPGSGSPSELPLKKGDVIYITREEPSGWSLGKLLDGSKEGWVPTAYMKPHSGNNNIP


Tests used:
Test in all cases: SPOT array
[1] = target: Sho1 SH3 (SHO1_YEAST), P40073
Chain of Sho1 SH3 (SHO1_YEAST), P40073 (P40073 295-366): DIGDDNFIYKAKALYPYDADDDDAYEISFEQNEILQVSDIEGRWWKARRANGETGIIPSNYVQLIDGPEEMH

[2] = target: T1, Boi1 SH3 (BOI1_YEAST), P38041
[3] = target: T2, Boi2 SH3 (BOI2_YEAST), P39969
[4] = target: T3, Rvs167 SH3 (RV167_YEAST), P39743
[5] = target: T4, Yhr016c SH3 (YSC84_YEAST), P32793
[6] = target: T5, Yfr024 SH3 (LSB3_YEAST), P43603
[7] = target: T6, Myo5 SH3 (MYO5_YEAST), Q04439

Binder	normalised SPOT signal, Boehringer light units (BLU); mean over the file's lines of this peptide [1]	normalised SPOT signal, Boehringer light units (BLU); mean over the file's lines of this peptide [2]	normalised SPOT signal, Boehringer light units (BLU); mean over the file's lines of this peptide [3]	normalised SPOT signal, Boehringer light units (BLU); mean over the file's lines of this peptide [4]	normalised SPOT signal, Boehringer light units (BLU); mean over the file's lines of this peptide [5]	normalised SPOT signal, Boehringer light units (BLU); mean over the file's lines of this peptide [6]	normalised SPOT signal, Boehringer light units (BLU); mean over the file's lines of this peptide [7]
VVNEKEVPAEPETQ [YER120W 161-174]	28.5	130	34.2	12.9	12.7	33	100
WLGNKYDPENPFND [YBL088C 600-613]	62.8	66.1	70.7	149	125	862	88.8
VTDIKLTPTDPLVG [YDL230W 193-206]	47.9	71.3	0.1	31	10.3	45.9	852
VVAVKIIPKKPWNA [YKL048C 113-126]	66.9	85.7	30.9	47.8	14.7	42	115
WFILKLFPHEPIEG [YMR034C 292-305]	31.7	12.8	30.6	43.8	131	1350	1270
VSQRKKRPISPHLT [YMR118C 67-80]	59.1	216	21.2	31	10.3	299	814
WEALKSVPIPPRKN [YJR113C 98-111]	3290	52300	1740	2780	1880	9510	379
WLDEKRIPSTPIDY [YPR145W 196-209]	81.5	11.5	962	897	179	1670	163
